Reference: the Immune Epitope Database (IEDB)
pKd: −log10 of the molar value.

How the values were obtained:
Experiment in all cases: IEDB peptide-MHC binding, purified MHC/competitive/radioactivity; filed as Kd, often an IC50 or EC50 that approximates it; ≥ and ≤ were set here for values at or beyond the usual limits of such assays
HLA-A*33:01 = biological target: HLA-A*33:01
HLA-A*31:01 = biological target: HLA-A*31:01
HLA-A*03:01 = biological target: HLA-A*03:01
HLA-A*11:01 = biological target: HLA-A*11:01
HLA-A*68:01 = biological target: HLA-A*68:01
[1] = source organism: Vaccinia virus WR
[2] = source organism: Dengue virus 3 Martinique/1243/1999
[3] = source organism: SARS coronavirus Tor2
[4] = source organism: Dengue virus 2 Jamaica/1409/1983
[5] = source organism: Dengue virus 4 Philippines/H241/1956
[6] = source organism: Mammarenavirus tacaribeense
[7] = source organism: Mammarenavirus juninense
[8] = source organism: Murray valley encephalitis virus (strain MVE-1-51)
[9] = source organism: Mammarenavirus guanaritoense

Sequence: KSDAKRNSK
- pKd (HLA-A*33:01; [1]): ≤ 4.11
- pKd (HLA-A*31:01; [1]): 5.73
- pKd (HLA-A*03:01; [1]): 5.94
- pKd (HLA-A*11:01; [1]): 6.05
- pKd (HLA-A*68:01; [1]): ≤ 4.11

Sequence: KVTEVRGYTK
- pKd (HLA-A*11:01; [2]): 6.70

Sequence: LFCLLNRYFR
- pKd (HLA-A*33:01; [3]): 7.44
- pKd (HLA-A*31:01; [3]): 7.89
- pKd (HLA-A*03:01; [3]): 5.91
- pKd (HLA-A*11:01; [3]): 6.26
- pKd (HLA-A*68:01; [3]): 6.60

Sequence: LFKRERDAIK
- pKd (HLA-A*33:01; [1]): 5.08
- pKd (HLA-A*31:01; [1]): 5.84
- pKd (HLA-A*03:01; [1]): ≤ 4.52
- pKd (HLA-A*11:01; [1]): ≤ 4.16
- pKd (HLA-A*68:01; [1]): ≤ 4.45

Sequence: LFVKKMLPK
- pKd (HLA-A*33:01; [1]): ≤ 4.48
- pKd (HLA-A*31:01; [1]): 5.84
- pKd (HLA-A*03:01; [1]): 5.82
- pKd (HLA-A*11:01; [1]): 6.62
- pKd (HLA-A*68:01; [1]): 6.33

Sequence: LIKKSDAKR
- pKd (HLA-A*33:01; [1]): 6.27
- pKd (HLA-A*31:01; [1]): 7.86
- pKd (HLA-A*03:01; [1]): ≤ 4.11
- pKd (HLA-A*11:01; [1]): 6.63
- pKd (HLA-A*68:01; [1]): 6.77

Sequence: LISGKGIGK
- pKd (HLA-A*03:01; [2]): 6.14

Sequence: LLFQLCTFTK
- pKd (HLA-A*33:01; [3]): 5.16
- pKd (HLA-A*31:01; [3]): 6.71
- pKd (HLA-A*03:01; [3]): 7.82
- pKd (HLA-A*11:01; [3]): 7.79
- pKd (HLA-A*68:01; [3]): 7.18

Sequence: LLIWAYLSK
- pKd (HLA-A*33:01; [1]): ≤ 4.43
- pKd (HLA-A*31:01; [1]): 4.95
- pKd (HLA-A*03:01; [1]): 7.04
- pKd (HLA-A*11:01; [1]): 7.00
- pKd (HLA-A*68:01; [1]): 6.82

Sequence: LMCHATFTMR
- pKd (HLA-A*33:01; [4]): 7.05
- pKd (HLA-A*31:01; [4]): 8.14

Sequence: LSSKGLACYR
- pKd (HLA-A*33:01; [1]): 7.33
- pKd (HLA-A*31:01; [1]): 8.16
- pKd (HLA-A*03:01; [1]): 6.89
- pKd (HLA-A*11:01; [1]): 7.36
- pKd (HLA-A*68:01; [1]): 8.32

Sequence: MANEMGFLEK
- pKd (HLA-A*11:01; [4]): 6.28

Sequence: MILLTMKNK
- pKd (HLA-A*03:01; [2]): 7.30
- pKd (HLA-A*11:01; [2]): 5.92

Sequence: MLVAPSYGMR
- pKd (HLA-A*68:01; [5]): 8.12

Sequence: MPSMKRFRR
- pKd (HLA-A*33:01; [4]): 8.17

Sequence: MQTMLFTMLR
- pKd (HLA-A*33:01; [3]): 7.88
- pKd (HLA-A*31:01; [3]): 8.01
- pKd (HLA-A*03:01; [3]): 7.14
- pKd (HLA-A*11:01; [3]): 7.95
- pKd (HLA-A*68:01; [3]): 8.96

Sequence: MSAAVKDER
- pKd (HLA-A*31:01; [2]): 7.49
- pKd (HLA-A*68:01; [2]): 7.13

Sequence: MSYYCKSHK
- pKd (HLA-A*33:01; [3]): 5.80
- pKd (HLA-A*31:01; [3]): 7.72
- pKd (HLA-A*03:01; [3]): 7.82
- pKd (HLA-A*11:01; [3]): 7.10
- pKd (HLA-A*68:01; [3]): 7.26

Sequence: MVTFKVPHAK
- pKd (HLA-A*03:01; [5]): 7.10
- pKd (HLA-A*11:01; [5]): 6.60
- pKd (HLA-A*68:01; [5]): 6.88

Sequence: NAFNCTFEY
- pKd (HLA-A*33:01; [3]): 5.73
- pKd (HLA-A*31:01; [3]): 4.94
- pKd (HLA-A*03:01; [3]): 5.40
- pKd (HLA-A*11:01; [3]): 7.70
- pKd (HLA-A*68:01; [3]): 8.01

Sequence: NCKCCWFADK
- pKd (HLA-A*33:01; [6]): ≤ 4.53
- pKd (HLA-A*31:01; [6]): 4.92
- pKd (HLA-A*03:01; [6]): 4.88
- pKd (HLA-A*11:01; [6]): ≤ 4.16
- pKd (HLA-A*68:01; [6]): ≤ 4.68

Sequence: NFPQHVITK
- pKd (HLA-A*33:01; [1]): 5.05
- pKd (HLA-A*31:01; [1]): 4.94
- pKd (HLA-A*03:01; [1]): 5.40
- pKd (HLA-A*11:01; [1]): 5.69
- pKd (HLA-A*68:01; [1]): 5.90

Sequence: NMISRMLINR
- pKd (HLA-A*33:01; [4]): 8.15
- pKd (HLA-A*31:01; [4]): 7.74
- pKd (HLA-A*68:01; [4]): 6.86

Sequence: NQLESKVSGK
- pKd (HLA-A*33:01; [3]): ≤ 4.15
- pKd (HLA-A*31:01; [3]): ≤ 4.37
- pKd (HLA-A*03:01; [3]): 5.02
- pKd (HLA-A*11:01; [3]): 4.83
- pKd (HLA-A*68:01; [3]): 5.16

Sequence: NSYISNIIY
- pKd (HLA-A*33:01; [1]): 4.93
- pKd (HLA-A*31:01; [1]): ≤ 4.63
- pKd (HLA-A*03:01; [1]): 5.13
- pKd (HLA-A*11:01; [1]): 5.60
- pKd (HLA-A*68:01; [1]): 6.22

Sequence: NVISSKISY
- pKd (HLA-A*33:01; [1]): 5.19
- pKd (HLA-A*31:01; [1]): 5.30
- pKd (HLA-A*03:01; [1]): 6.19
- pKd (HLA-A*11:01; [1]): 6.32
- pKd (HLA-A*68:01; [1]): 6.36

Sequence: NYTKFWYVNH
- pKd (HLA-A*33:01; [7]): 7.26
- pKd (HLA-A*31:01; [7]): 6.00
- pKd (HLA-A*03:01; [7]): ≤ 4.15
- pKd (HLA-A*11:01; [7]): ≤ 4.24
- pKd (HLA-A*68:01; [7]): 5.02

Sequence: PLYIDISDVK
- pKd (HLA-A*33:01; [1]): ≤ 4.25
- pKd (HLA-A*31:01; [1]): 5.02
- pKd (HLA-A*03:01; [1]): 6.81
- pKd (HLA-A*11:01; [1]): 5.04
- pKd (HLA-A*68:01; [1]): 5.85

Sequence: PSTVKTNLY
- pKd (HLA-A*33:01; [1]): 5.43
- pKd (HLA-A*31:01; [1]): 5.21
- pKd (HLA-A*03:01; [1]): ≤ 4.39
- pKd (HLA-A*11:01; [1]): 5.17
- pKd (HLA-A*68:01; [1]): 5.10

Sequence: QAIEPSGNNY
- pKd (HLA-A*33:01; [1]): ≤ 4.15
- pKd (HLA-A*31:01; [1]): 5.46
- pKd (HLA-A*03:01; [1]): ≤ 4.15
- pKd (HLA-A*11:01; [1]): 5.32
- pKd (HLA-A*68:01; [1]): 6.16

Sequence: QMAPVSAMVR
- pKd (HLA-A*33:01; [3]): 5.14
- pKd (HLA-A*31:01; [3]): 5.99
- pKd (HLA-A*03:01; [3]): 6.28
- pKd (HLA-A*11:01; [3]): 5.97
- pKd (HLA-A*68:01; [3]): 6.80

Sequence: QMLTSGEYK
- pKd (HLA-A*33:01; [1]): 5.14
- pKd (HLA-A*31:01; [1]): 7.55
- pKd (HLA-A*03:01; [1]): 8.16
- pKd (HLA-A*11:01; [1]): 8.44
- pKd (HLA-A*68:01; [1]): 6.58

Sequence: QQVVDADSK
- pKd (HLA-A*33:01; [3]): ≤ 4.11
- pKd (HLA-A*31:01; [3]): ≤ 4.11
- pKd (HLA-A*03:01; [3]): ≤ 4.55
- pKd (HLA-A*11:01; [3]): ≤ 4.58
- pKd (HLA-A*68:01; [3]): ≤ 4.18

Sequence: QTCAGVIEY
- pKd (HLA-A*33:01; [1]): ≤ 4.11
- pKd (HLA-A*31:01; [1]): 4.72
- pKd (HLA-A*03:01; [1]): 5.49
- pKd (HLA-A*11:01; [1]): 6.87
- pKd (HLA-A*68:01; [1]): 5.75

Sequence: RLISMMGFK
- pKd (HLA-A*33:01; [3]): ≤ 4.11
- pKd (HLA-A*31:01; [3]): 6.98
- pKd (HLA-A*03:01; [3]): 8.50
- pKd (HLA-A*11:01; [3]): 7.65
- pKd (HLA-A*68:01; [3]): 6.15

Sequence: RQTVSRFKK
- pKd (HLA-A*33:01; [1]): 5.18
- pKd (HLA-A*31:01; [1]): 7.88
- pKd (HLA-A*03:01; [1]): 7.40
- pKd (HLA-A*11:01; [1]): 7.39
- pKd (HLA-A*68:01; [1]): 5.33

Sequence: RWLWGFLSR
- pKd (HLA-A*31:01; source organism: Dengue virus 1 Singapore/S275/1990): 8.84

Sequence: SLRTTTVSGK
- pKd (HLA-A*03:01; [2]): 8.24

Sequence: SSMINGVVK
- pKd (HLA-A*11:01; [2]): 7.89

Sequence: TIGTTHFQR
- pKd (HLA-A*31:01; [4]): 7.84
- pKd (HLA-A*68:01; [4]): 7.74

Sequence: TLFVEECLR
- pKd (HLA-A*33:01; [5]): 7.06
- pKd (HLA-A*68:01; [5]): 7.52

Sequence: TTAKEVALLR
- pKd (HLA-A*68:01; [5]): 7.13

Sequence: VASAGISYK
- pKd (HLA-A*03:01; [5]): 7.55
- pKd (HLA-A*11:01; [5]): 7.43

Sequence: VQTKPGIFK
- pKd (HLA-A*03:01; [8]): 6.56
- pKd (HLA-A*11:01; [8]): 6.36

Sequence: VTEFRRTAIH
- pKd (HLA-A*33:01; [9]): 5.23
- pKd (HLA-A*31:01; [9]): 4.97
- pKd (HLA-A*03:01; [9]): ≤ 4.48
- pKd (HLA-A*68:01; [9]): 4.82

Sequence: WTLMYFHRR
- pKd (HLA-A*33:01; [4]): 8.18
- pKd (HLA-A*31:01; [4]): 8.83
